Biological target: K-TM protein used for the affinity measurement with hFL (human)
Assay: BLI; method not given; BLI is the only affinity method that the paper describes (Octet R8, SA chip, PBST); who was immobilised is not said

For “hFL lectin (mannose-binding lectin, human recombinant protein)”, the Kd was 49.5 nM.
